Data from patent US20060153775A1 (BRACCO INTERNATIONAL B V, published 2006).
Non-standard residues stand in square brackets, D forms with d. No end group written: not given here. AEEA = NCCOCCOCC(=O)O

T1: NP-1/Fc (R&D Systems)
T1 chain: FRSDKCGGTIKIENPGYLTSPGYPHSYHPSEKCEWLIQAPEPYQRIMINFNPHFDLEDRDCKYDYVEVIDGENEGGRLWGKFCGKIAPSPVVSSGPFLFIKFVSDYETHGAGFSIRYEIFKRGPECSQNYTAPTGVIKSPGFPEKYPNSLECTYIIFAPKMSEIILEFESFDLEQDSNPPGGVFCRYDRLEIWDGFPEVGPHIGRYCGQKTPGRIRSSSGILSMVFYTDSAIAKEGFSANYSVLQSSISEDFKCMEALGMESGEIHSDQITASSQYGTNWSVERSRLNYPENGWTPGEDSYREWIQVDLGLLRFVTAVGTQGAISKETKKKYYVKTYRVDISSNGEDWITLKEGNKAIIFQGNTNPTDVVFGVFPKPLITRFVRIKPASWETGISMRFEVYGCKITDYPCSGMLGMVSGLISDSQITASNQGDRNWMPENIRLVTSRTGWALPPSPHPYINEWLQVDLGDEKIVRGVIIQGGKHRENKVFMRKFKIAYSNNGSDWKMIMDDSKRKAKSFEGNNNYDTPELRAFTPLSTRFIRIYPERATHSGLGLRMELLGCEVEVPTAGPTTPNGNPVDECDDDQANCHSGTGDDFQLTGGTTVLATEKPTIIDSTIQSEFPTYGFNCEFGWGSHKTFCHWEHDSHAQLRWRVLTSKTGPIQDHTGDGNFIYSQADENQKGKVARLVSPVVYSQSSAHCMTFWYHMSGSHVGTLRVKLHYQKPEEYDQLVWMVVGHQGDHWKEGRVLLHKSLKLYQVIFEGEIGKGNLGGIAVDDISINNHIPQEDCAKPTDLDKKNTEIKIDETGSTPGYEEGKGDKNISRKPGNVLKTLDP


How the values were obtained:
NP-1/Fc (R&D Systems) [1] = molecular target: T1, NP-1/Fc (R&D Systems); assay: fluorescence polarization, competition of OG-labeled D41 binding to NP-1/Fc
Procedure: (§1) The ability of various compositions comprising TKPPR monomers or multimers to bind to NP-1/Fc and KDR-Fc was evaluated using FP. […] FP values (mP) for each substrate was measured by titrating the ligand (5-20 nM) with receptor protein using a Jolley Research and Consulting FPM-1 fluorescence Polarization analyzer. In each of these experiments the observed polarization values were plotted against receptor concentration. The mP values for 100% binding of tracer labeled ligand to receptor protein was calculated using the software provided by the vendor.

NP-1/Fc (R&D Systems) [2] = molecular target: T1, NP-1/Fc (R&D Systems); assay: competition with 250 pM 125I-VEGF165 for plate-coated NP-1/Fc
Procedure: (§2) Competitive binding assays with microtiter plates coated with NP-1/Fc (R&D systems) were performed using ¹²⁵I-VEGF₁₆₅ as radioligand (Amersham Pharmacia Biotech Cat. No. IM274, Specific Activity: 1000-2500 Ci/mmol). An assay buffer consisting of Hank's Balanced Salt Solution (HBSS), 25 mM HEPES, and 0.1% BSA, pH 7.4 was used, and for all experiments, Assay volume per well was 75 μL. Plates (Nunc MaxiSorp white opaque Microtiter plate [C-bottom, 437796]) were coated by incubating the wells with 75 μL of a solution containing 3 μg/mL NP-1/Fc in D-PBS/0.1% NaAzide overnight at 4° C. after covering with sealing tape (Dynex, VWR Cat. No. 62402-931). The next day all wells, even control wells lacking NP-1/Fc, were blocked 2 hrs with blocking buffer (1% BSA in D-PBS with 0.05% v/v Tween-20) then washed 4× with PBST (D-PBS/0.05% v/v Tween-20) before starting the assay. All points were derived from triplicate wells, and for each set of replicates in NP-1/Fc-coated wells, a companion set in the absence of the receptor was included. […] Solutions were added to 1.2 mL polypropylene tubes conforming to the microtiter format (Costar Cat. No. 29442-602), and transferred from these tubes to microtiter wells, without further dilution, using a multichannel pipetter. After addition of the appropriate solutions, microtiter plates were incubated at 4° C. for 2 hours. Following the incubation, plates were handwashed 5 times with D-PBS containing 0.05% Tween-20 and 0.1% BSA. The plates were blotted dry and 25 μL deionized water and 100 μL scintillation fluid (Optiphase SuperMix, Wallac) were added to each well. Plates were agitated using a Plate Shaker (Hyperion, Cat. No. 4030-100F) for 3-5 minutes and were then counted using a Microplate Scintillation Counter (Wallac Microbeta Trilux). A set of serially diluted ¹²⁵I-VEGF₁₆₅ standard wells ranging from 200 to 0.04 pM were included with each experiment to aid in quantification of the amount of radiolabel bound. VEGF₁₆₅ (Cat. No. 100-20) was obtained from Peprotech.

NP-1/Fc (R&D Systems) [3] = molecular target: T2, NP-1/Fc (R&D Systems); assay: fluorescence polarization, OG-labeled ligand (5-20 nM) titrated with NP-1/Fc, 37 C
T2 construct: Bought reagent; also called Neuropilin-1/Fc; Npn-1
Procedure: as §1

NP-1/Fc (R&D Systems) [4] = molecular target: T2, NP-1/Fc (R&D Systems); assay: competition with 250 pM 125I-VEGF165 for plate-coated NP-1/Fc
Procedure: as §2

NP-1/Fc (R&D Systems) [5] = molecular target: T2, NP-1/Fc (R&D Systems); assay: fluorescence polarization, competition of OG-labeled D41 binding to NP-1/Fc
Procedure: as §1

[6] = molecular target: T3, neuropilin-1 on HUVEC (neuropilin-1-expressing cells) (human, UniProt O14786 22-923); assay: Qdot binding to HUVEC, fluorescence microscopy
T3 construct: whole, on cells; The assay was done on whole HUVEC; also called NP-1; endothelial cells
T3 sequence (O14786 22-923): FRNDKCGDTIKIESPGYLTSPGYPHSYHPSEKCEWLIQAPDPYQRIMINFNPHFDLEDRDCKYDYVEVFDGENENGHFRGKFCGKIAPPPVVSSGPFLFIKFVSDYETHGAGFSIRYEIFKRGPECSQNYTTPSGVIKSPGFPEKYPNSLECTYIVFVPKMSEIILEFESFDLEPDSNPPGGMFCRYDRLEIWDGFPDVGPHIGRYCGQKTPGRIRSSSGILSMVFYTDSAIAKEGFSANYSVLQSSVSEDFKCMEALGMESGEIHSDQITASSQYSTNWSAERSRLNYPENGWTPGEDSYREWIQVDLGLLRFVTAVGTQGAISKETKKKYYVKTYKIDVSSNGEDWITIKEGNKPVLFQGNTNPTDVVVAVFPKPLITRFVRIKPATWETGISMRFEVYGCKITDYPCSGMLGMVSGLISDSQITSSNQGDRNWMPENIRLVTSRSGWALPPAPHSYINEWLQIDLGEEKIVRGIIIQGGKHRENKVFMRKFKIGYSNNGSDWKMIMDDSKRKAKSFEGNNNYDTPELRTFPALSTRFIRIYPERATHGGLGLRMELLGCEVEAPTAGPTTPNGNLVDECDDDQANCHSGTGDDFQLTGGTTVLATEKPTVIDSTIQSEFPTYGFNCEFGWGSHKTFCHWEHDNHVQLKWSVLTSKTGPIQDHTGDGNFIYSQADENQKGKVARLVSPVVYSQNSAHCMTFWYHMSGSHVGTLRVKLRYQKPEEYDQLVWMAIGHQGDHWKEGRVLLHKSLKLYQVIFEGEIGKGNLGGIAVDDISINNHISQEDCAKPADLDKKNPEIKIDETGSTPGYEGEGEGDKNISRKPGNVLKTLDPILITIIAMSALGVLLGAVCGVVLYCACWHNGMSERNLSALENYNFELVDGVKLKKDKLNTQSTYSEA
Procedure: Human umbilical vein endothelial cells (HUVEC) were grown to near confluency on collagen 1-coated 8-well chamber slides (BD Biosciences) in EGM-2 medium (Cambrex). […] The slides were incubated 45 min at 37° C. in a tissue culture incubator with 5% CO₂ then incubated an additional 45 min at room temperature in ambient air. After washing five times with D-PBS (30 sec per wash), the cells were fixed with ice-cold acetone for 2 min, rinsed again with D-PBS, and mounted with SlowFade+Dapi (Molecular Probes). The slide wells were examined with a fluorescence microscope equipped with a filter set optimized for 655 nm quantum dots (Omega).

[7] = molecular target: T4, soluble human KDR/Fc chimera (R&D Systems Inc.) (human, UniProt P35968 20-764); assay: competition with 125I-VEGF165 for plate-coated KDR-Fc
T4 construct: Bought reagent; Fc part of the bought chimera not given, not described
T4 sequence (P35968 20-764, change not shown): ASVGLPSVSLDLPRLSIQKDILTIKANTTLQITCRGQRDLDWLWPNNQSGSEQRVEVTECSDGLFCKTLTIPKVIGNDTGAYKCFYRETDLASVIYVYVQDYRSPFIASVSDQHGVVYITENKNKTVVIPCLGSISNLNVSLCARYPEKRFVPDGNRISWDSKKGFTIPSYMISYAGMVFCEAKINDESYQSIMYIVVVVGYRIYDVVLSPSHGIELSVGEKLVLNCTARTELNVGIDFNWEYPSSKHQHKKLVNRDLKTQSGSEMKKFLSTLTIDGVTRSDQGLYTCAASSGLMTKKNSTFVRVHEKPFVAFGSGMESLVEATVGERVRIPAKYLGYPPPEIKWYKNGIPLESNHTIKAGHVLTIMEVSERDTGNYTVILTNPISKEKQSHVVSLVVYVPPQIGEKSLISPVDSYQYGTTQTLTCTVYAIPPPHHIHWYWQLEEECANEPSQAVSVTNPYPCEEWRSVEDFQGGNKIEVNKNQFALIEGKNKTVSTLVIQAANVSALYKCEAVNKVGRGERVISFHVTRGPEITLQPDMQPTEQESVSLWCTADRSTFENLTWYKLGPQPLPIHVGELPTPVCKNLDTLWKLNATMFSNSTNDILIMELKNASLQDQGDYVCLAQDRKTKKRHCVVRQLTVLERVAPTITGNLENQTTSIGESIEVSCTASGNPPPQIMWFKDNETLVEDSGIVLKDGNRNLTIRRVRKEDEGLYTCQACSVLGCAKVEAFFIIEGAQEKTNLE

Row | Binder | IC50 (NP-1/Fc (R&D Systems) [2]) | IC50 (NP-1/Fc (R&D Systems) [4]) | further results
1 | VEGF165 (ligand, UniProt P15692-4 27-191, looked up, 125I label on the radioligand form (Amersham IM274), mature; The labelled and the unlabelled protein are kept as one molecule; also called unlabeled VEGF) APMAEGGGQNHHEVVKFMDVYQRSYCHPIETLVDIFQEYPDEIEYIFKPSCVPLMRCGGCCNDEGLECVPTEESNITMQIMRIKPHQGQHIGEMSFLQHNKCECRPKKDRARQENPCGPCSERRKHLFVQDPQTCKCSCKNTDSRCKARQLELNERTCRCDKPRR | 0.0005 µM |  | IC50 (NP-1/Fc (R&D Systems) [1]): 200 nM
2 | [AEEA]TKPPR (also: tetramer of four TKPPR on a branched non-peptide scaffold, one Oregon Green label on scaffold, also called tetrameric TKPPR; fluorescently-labeled TKPPR tetramer) [TKPPR tetramer D41, OG-(TKPPR)4] |  | 0.13 µM | Kd (NP-1/Fc (R&D Systems) [3]): 25 to 50 nM
3 | TKPPR (also called D45; TKPPR-OH) [TKPPR (L-threonyl-L-lysyl-L-prolyl-L-prolyl-L-arginine)] |  | 43 µM | IC50 (NP-1/Fc (R&D Systems) [5]): 80 µM
4 | [AEEA]TKPPR (also: dimer on branched bis-acid scaffold carrying one Oregon Green) [TKPPR dimer D40, OG-(TKPPR)2] |  | 3 µM | 
5 | TKPPR (also: further groups not given here, The full structure of D51 ([M+H] 1004.5) stands only in a drawing; also called D51-conjugated Qdots; linear monomeric TKPPR-conjugated Qdots) [Qdots conjugated with monomeric TKPPR (D51)] |  |  | binding result [6]: binds
6 | [AEEA]TKPPR (also: four TKPPR on a branched scaffold, thiol coupled through LC-SMCC to quantum dots, Many D50 molecules on each 655 nm quantum dot; also called D50-conjugated Qdots; branched tetrameric TKPPR-conjugated Qdots) [Qdots conjugated with tetrameric TKPPR (D50)] |  |  | binding result [6]: binds
7 | TKPPR (also: tetramer: C-terminal Arg of each TKPPR linked to amino groups of branched Lys-Lys(Lys)-Gly core, Gly carries TTDA-Oregon Green, The lysine core (three Lys and one Gly) is not written as a chain of its own; also called Reverse Tetramer; compound 16) [TKPPR tetramer D43 on a lysine core with trioxa Oregon Green at the C-terminal] |  | 8 µM | 
8 | {Oregon Green (5-isomer)}-GTKPPR-OH (also called D44; OG-TKPPR) [Oregon Green (5-isomer)-GTKPPR-OH] | 30 µM |  | binding result [7]: no binding
9 | TKPR (Naturally occurring tetrapeptide, used as free peptide; also called free tuftsin) [Tuftsin (TKPR)] | 280 µM |  | 
